Source: US6683162B2, “Targeted alpha particle therapy using actinium-255 conjugates” (Sloan Kettering Institute of Cancer Research, priority 2000, dated 2004)

Tested on: LNCaP tumor xenograft
Experiment: Biodistribution of 225Ac/221Fr/213Bi in LNCaP tumor bearing mice
Conditions: for A2(o)/A2(eq) Bi-213 at sacrifice time / A2(o)/A2(eq) Fr-221 at sacrifice time / % ID/g Ac-225 / % ID/g Bi-213 / % ID/g Fr-221: 48 hour, mean; for A2(o)/A2(eq) Bi-213 at sacrifice time / A2(o)/A2(eq) Fr-221 at sacrifice time: daughter/parent ratio
Experimental: An [225Ac]DOTA-J591 biodistribution experiment was carried-out using a male athymic nude (8-12 weeks old) mouse (Taconic, Germantown, N.Y.) model with an i.m. xenograft of 5E6 LNCaP tumor cells in Matrigel (Becton Dickinson Labware, Bedford Mass.) implanted in the right hind leg. The tumors were allowed to grow for 4 weeks and then the mice were separated into two groups (n=12 per group). One group received approximately 0.55 mL of [225Ac]DOTA-J591 (350 nCi ^225Ac on 0.0035 mg J591) and the other group received the irrelevant control [225Ac]DOTA-HuM195 (350 nCi 225Ac on 0.0026 mg HuM195) via i.p. injection. Three to four animals from each group were sacrificed at 48 h and 72 h post injection. Blood and tissue samples including: heart, kidneys, lung, spleen, liver, stomach, intestine, and tumor were harvested, weighed and counted using a Packard Cobra Gamma Counter (Packard Instrument Co., Inc., Meriden, Conn.) with two energy windows, ^221Fr (185-250 KeV window) and ^213Bi (360-480 window). The percent of the injected dose per gram of tissue (% ID/g) was determined by measuring the activity in […] aliquots of each respective [^225Ac]mAb injectate in triplicate. After the initial 48 h time point data was analyzed, attention was focused on collection of blood, tumor, heart, kidney and small intestine samples as the need to rapidly sacrifice, harvest, and count was necessary in order to measure ^221Fr in the samples.
Using known methods (28), values of A2(o)/A2(eq) were determined for each tissue sample.

225Ac-HuM195-DOTA
225Ac uptake in the liver (48 h, LNCaP tumor bearing mice, i.p.): less than 8%
A2(o)/A2(eq) Bi-213 at sacrifice time (Blood): 0.04
A2(o)/A2(eq) Fr-221 at sacrifice time (Blood): 0.13
% ID/g Ac-225 (Blood): 13.5 % ID/g
% ID/g Bi-213 (Blood): 0.55 % ID/g
% ID/g Fr-221 (Blood): 0.18 % ID/g
A2(o)/A2(eq) Bi-213 at sacrifice time (Heart): 0.99
A2(o)/A2(eq) Fr-221 at sacrifice time (Heart): 1.6
% ID/g Ac-225 (Heart): 3.9 % ID/g
% ID/g Bi-213 (Heart): 3.9 % ID/g
% ID/g Fr-221 (Heart): 6.1 % ID/g
A2(o)/A2(eq) Bi-213 at sacrifice time (Kidneys): 10.0
A2(o)/A2(eq) Fr-221 at sacrifice time (Kidneys): 16.8
% ID/g Ac-225 (Kidneys): 4.7 % ID/g
% ID/g Bi-213 (Kidneys): 46.5 % ID/g
% ID/g Fr-221 (Kidneys): 72.8 % ID/g
A2(o)/A2(eq) Bi-213 at sacrifice time (Liver): 0.87
A2(o)/A2(eq) Fr-221 at sacrifice time (Liver): 0.70
% ID/g Ac-225 (Liver): 7.7 % ID/g
% ID/g Bi-213 (Liver): 6.5 % ID/g
% ID/g Fr-221 (Liver): 5.5 % ID/g
A2(o)/A2(eq) Bi-213 at sacrifice time (Sm. Int.): 4.0
A2(o)/A2(eq) Fr-221 at sacrifice time (Sm. Int.): 13.3
% ID/g Ac-225 (Sm. Int.): 1.6 % ID/g
% ID/g Bi-213 (Sm. Int.): 6.3 % ID/g
% ID/g Fr-221 (Sm. Int.): 18.7 % ID/g
A2(o)/A2(eq) Bi-213 at sacrifice time (Tumor): 0.87
A2(o)/A2(eq) Fr-221 at sacrifice time (Tumor): 0.83
% ID/g Ac-225 (Tumor): 1.60 % ID/g
% ID/g Bi-213 (Tumor): 5.0 % ID/g
% ID/g Fr-221 (Tumor): 4.6 % ID/g
